Data set [1] deals with SAS-6 coiled coil (CC interface) (Caenorhabditis elegans) (UniProt O62479). The settings on record: cited from earlier work.
The data set “FP” concerns the molecule itself. As to the kind of experiment: FP.
Data set [2] concerns the molecule itself. In words: fluorescence polarisation; 1,5-IAEDANS on C100 of CeSAS-6N; polarisation against protein concentration in PBS; fit of an ideal self-association model; monomer to NN dimer; three independent experiments.
Data set [3] deals with the molecule itself. In words: SEC; analytical SEC, Superdex 75 10/300 GL, PBS (20 mM sodium phosphate pH 7.0, 150 mM NaCl, 2 mM DTT); different protein concentrations, up to 10 mg/ml; self-association. Background: SEC sorts molecules by how far they enter the pores of the column.

Consider five molecules from publication PMC6401066, “A dynamically interacting flexible loop assists oligomerisation of the Caenorhabditis elegans centriolar protein SAS-6” (Scientific Reports, 2019).

In general, Kd refers to the free concentration of one partner at which half of the binding sites on the other are occupied at equilibrium, for simple one-to-one binding. By stoichiometry N is commonly meant a count of units in the complex or per binding partner.

As to “SAS-6 coiled coil (CC interface) (from UniProt O62479)”, the Kd in data set [1] was 1 µM.

B1: CeSAS-6N S123E variant (domain or fragment, C. elegans, UniProt O62479 1-168, looked up)
chain: MTSKIALFDQTLIASLLQPLSLNQPDFKAYKTKVKLKISEQRNETSGEKELKFEISRSDDFEFLFSETLNNEKYQILARDHDLTVDFDAFPKVIIQHLLCKNIVKNLEEDGEVDARKKAGYHEIADPGKPTEINIILDAEKNFCSFELFSKTPISKGKIFSIKLHAVR
modifications: 1,5-IAEDANS conjugated to C100 (fluorescence polarisation samples)
notes: SAS-6, C. elegans, N-terminal domain, amino acids 1-168, with S123E; source: E. coli BL21 (DE3), purified (His-Trap HP, thrombin cleavage, Sephadex G75 SEC); not shown: His6, N-terminal, cleaved
In turn, B1 gave a Kd in “FP” of 48 µM. Also, the “fold increase of NN affinity against CeSAS-6N WT” value in data set [2] was around 2 fold.

B2: C. elegans SAS-6 N-terminal domain, wild type (CeSAS-6N WT, amino acids 1-168) (domain or fragment, UniProt O62479 1-168, looked up)
chain: MTSKIALFDQTLIASLLQPLSLNQPDFKAYKTKVKLKISEQRNETSGEKELKFEISRSDDFEFLFSETLNNEKYQILARDHDLTVDFDAFPKVIIQHLLCKNIVKNLEEDGEVDARKKAGYHSIADPGKPTEINIILDAEKNFCSFELFSKTPISKGKIFSIKLHAVR
modifications: 1,5-IAEDANS conjugated to C100 (fluorescence polarisation samples)
notes: spindle assembly abnormal protein 6 (SAS-6), C. elegans, N-terminal domain, amino acids 1-168; Samples for NMR were isotopically labelled (15N) and carried no fluorophore; also called WT CeSAS-6N; source: E. coli BL21 (DE3), purified (His-Trap HP, thrombin cleavage, Sephadex G75 SEC); not shown: His6, N-terminal, cleaved
B2 displayed a Kd in data set [2] of around 100 µM.

B3: C. elegans SAS-6 N-terminal domain plus a short stretch of the coiled coil, wild type (CeSAS-6N-CC WT, amino acids 1-215) (domain or fragment, UniProt O62479 1-215, looked up)
chain: MTSKIALFDQTLIASLLQPLSLNQPDFKAYKTKVKLKISEQRNETSGEKELKFEISRSDDFEFLFSETLNNEKYQILARDHDLTVDFDAFPKVIIQHLLCKNIVKNLEEDGEVDARKKAGYHSIADPGKPTEINIILDAEKNFCSFELFSKTPISKGKIFSIKLHAVRGDHLISHLLKICSSQAVKLSTFYKSADELASLRQKCGDLEKQVEKLS
notes: SAS-6, C. elegans, N-terminal domain plus a short stretch of the coiled coil, amino acids 1-215; Forms a dimer through the coiled coil (calculated mass of the dimer 48.8 kDa) that assembles further through the NN interface; also called WT CeSAS-6_(N-CC); source: E. coli BL21 (DE3), purified (His-Trap HP, thrombin cleavage, Sephadex G75 SEC); not shown: His6, N-terminal, cleaved
On to B3, for which the binding result in data set [3] is reported as “binds”.

B4: CeSAS-6N-CC Δ103–130 (domain or fragment, C. elegans, UniProt O62479 1-215, looked up)
chain: MTSKIALFDQTLIASLLQPLSLNQPDFKAYKTKVKLKISEQRNETSGEKELKFEISRSDDFEFLFSETLNNEKYQILARDHDLTVDFDAFPKVIIQHLLCKNTEINIILDAEKNFCSFELFSKTPISKGKIFSIKLHAVRGDHLISHLLKICSSQAVKLSTFYKSADELASLRQKCGDLEKQVEKLS
notes: source: E. coli BL21 (DE3), purified (His-Trap HP, thrombin cleavage, Sephadex G75 SEC); not shown: His6, N-terminal, cleaved
For the molecule B4, in data set [3], the “stoichiometry N” value was determined as 2.
